Tests used:
[1] = molecular target: human P-cadherin–Fc fusion protein (human) (UniProt P22223); assay: cell adhesion assay
[2] = molecular target: purified human IgG1 (human); assay: cell adhesion assay

human P-cadherin–Fc fusion protein (human), sequence (P22223 108-654): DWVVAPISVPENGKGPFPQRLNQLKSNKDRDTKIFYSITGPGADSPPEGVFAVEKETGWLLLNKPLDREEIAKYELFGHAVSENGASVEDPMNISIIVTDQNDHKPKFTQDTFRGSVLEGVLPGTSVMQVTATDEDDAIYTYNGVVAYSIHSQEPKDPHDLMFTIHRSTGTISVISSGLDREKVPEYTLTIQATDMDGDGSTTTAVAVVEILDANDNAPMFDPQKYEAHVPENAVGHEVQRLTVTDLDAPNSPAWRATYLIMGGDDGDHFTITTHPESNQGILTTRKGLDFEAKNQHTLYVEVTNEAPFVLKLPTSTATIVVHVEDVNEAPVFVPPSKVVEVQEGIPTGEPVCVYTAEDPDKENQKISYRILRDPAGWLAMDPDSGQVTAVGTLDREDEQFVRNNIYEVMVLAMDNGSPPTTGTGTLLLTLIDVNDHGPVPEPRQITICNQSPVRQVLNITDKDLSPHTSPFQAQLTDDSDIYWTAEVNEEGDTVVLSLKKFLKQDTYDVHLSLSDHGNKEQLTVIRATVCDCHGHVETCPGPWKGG

Substance	fold more coated fusion protein needed than of E-cadherin–Fc [1]	percent of cells adhering at 500 ng/well [1]	percent of cells adhering [2]
integrin αEβ7 of cultured human intestinal intraepithelial lymphocytes (from UniProt P38570 19-1179; P26010 20-798) (complex)	> 100 fold	40%	–
αEβ7 on JY′ cells transfected with full-length human αE (JY′-αE) (from UniProt P38570 19-1179; P26010 20-798) (complex)	–	–	< 3%

Source: publication PMC2132596
